In paper PMC10999626, “Kinetic modeling of the plasma pharmacokinetic profiles of ADAMTS13 fragment and its Fc-fusion counterpart in mice” (Frontiers in Pharmacology, 2024):

Tests used:
[1] = target: T1, biotinylated mouse FcRn protein (mouse, UniProt Q61559 22-297, biotin (biotinylated; site not stated)); assay: BLI; biotinylated mouse FcRn (1.0 ug/mL) immobilised on streptavidin biosensor tip; MDTCS-Fc 0.625 to 20 nM in solution; 25 mM acetate, 25 mM NaH2PO4, 150 mM NaCl, 0.01% Tween-20, pH 6.0; association 5 min, dissociation 5 min; Octet Qke; biosensors without FcRn subtracted; details: both partners purified
T1 construct: neonatal Fc receptor (FcRn), mouse; also called mouse neonatal Fc-receptor; source: bought: Acro Biosystems
T1 sequence (looked up): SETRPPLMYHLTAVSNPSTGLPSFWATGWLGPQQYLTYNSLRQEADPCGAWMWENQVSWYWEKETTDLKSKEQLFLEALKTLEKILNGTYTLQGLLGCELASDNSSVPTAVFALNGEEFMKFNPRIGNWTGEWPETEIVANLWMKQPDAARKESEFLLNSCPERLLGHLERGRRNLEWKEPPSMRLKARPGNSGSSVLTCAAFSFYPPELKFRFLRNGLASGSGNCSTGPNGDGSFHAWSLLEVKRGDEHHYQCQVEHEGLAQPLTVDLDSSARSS

[2] = target: T1, biotinylated mouse FcRn protein; assay: as above; details: both partners purified; remark: listed apart in the source

koff [1]: 1.96e-06 s⁻¹ | Kd [2]: 0.144 ± 0.022 nM
B1: MDTCS-Fc (Fc fusion)
chain: AAGGILHLELLVAVGPDVFQAHQEDTERYVLTNLNIGAELLRDPSLGAQFRVHLVKMVILTEPEGAPNITANLTSSLLSVCGWSQTINPEDDTDPGHADLVLYITRFDLELPDGNRQVRGVTQLGGACSPTWSCLITEDTGFDLGVTIAHEIGHSFGLEHDGAPGSGCGPSGHVMASDGAAPRAGLAWSPCSRRQLLSLLSAGRARCVWDPPRPQPGSAGHPPDAQPGLYYSANEQCRVAFGPKAVACTFAREHLDMCQALSCHTDPLDQSSCSRLLVPLLDGTECGVEKWCSKGRCRSLVELTPIAAVHGRWSSWGPRSPCSRSCGGGVVTRRRQCNNPRPAFGGRACVGADLQAEMCNTQACEKTQLEFMSQQCARTDGQPLRSSPGGASFYHWGAAVPHSQGDALCRHMCRAIGESFIMKRGDSFLDGTRCMPSGPREDGTLSLCVSGSCRTFGCDGRMDSQQVWDRCQVCGGDNSTCSPRKGSFTAGRAREYVTFLTVTPNLTSVYIANHRPLFTHLAVRIGGRYVVAGKMSISPNTTYPSLLEDGRVEYRVALTEDRLPRLEEIRIWGPLQEDADIQVYRRYGEEYGNLTRPDITFTYFQPKPRQAEPKSCDKTHTCPPCPAPEFLGGPSVFLFPPKPKDTLYITREPEVTCVVVDVSQEDPEVQFNWYVDGVEVHNAKTKPREEQFNSTYRVVSVLTVLHQDWLNGKEYKCKVSNKGLPSSIEKTISKAKGQPREPQVYTLPPSQEEMTKNQVSLTCLVKGFYPSDIAVEWESNGQPENNYKTTPPVLDSDGSFFLYSRLTVDKSRWQEGNVFSCSVMHEALHNHYTQKSLSLSL
